The labels stand for the following.
B1: A10.L45 (antibody, V domains shown)
VH: EVQLVESGGGLVKSGGSLRLSCAASGFTFRSHWMSWVRQAPGKGLEWVAIISYDGSNKYSADSVKGRFTISRDNSKNTLYLQLNSLRAEDTAVYYCAKAGGGNVGFDIWGQGTMVTVSS
VL: SYELTQPPSVSVSPGQTASITCSADELGTQYVSWYQQKPGQSPVLVIYQDATRPSGIPERFSGSNSGNTATLTISGTQAMDEADYYCQAWDRSGVVFGGGTKLTVL
B2: A10.K30 (antibody, V domains shown)
VH: B1 VH with L11V, K13Q, S14P, R30G, S31N, I50D, Y53S, S56R, N57Y, S60Y
VL: B1 VL with E26K, Q30K, T52K, A79T, Y86L, A89S, G94D
B3: A10.K42 (antibody, V domains shown)
VH: B1 VH with K13Q, S14P, R30Q, I50M, S56T, N57I, S60Y
VL: B1 VL with E26K, Q30K, T52K, A79T, Y86L, A89S, G94D
B4: A10.L73 (antibody, V domains shown)
VH: B1 VH
VL: B1 VL with A24G, E26N, T29S, T52Q
B5: E9.13 (antibody, V domains shown)
VH: EVQLQESGPGLVKPSETLSLTCTVSGGSISSSSYYWGWIRQPPGKGLEWIGDIYYTGSTYYNPSLKSRVTISVDTSKNQFSLKLSSVTAADTAVYYCAREDVILRGGSDYWGQGTLVTVSS
VL: SYELTQPPSVSVSPGQTASITCSGDTLGDKYVSWYQQKPGQSPVLVIYEDSERPSGIPERFSGSNSGDTATLTISGTQPMDEADYYCQAWDSETGVFGSGTKVTVL
notes: also called DLL4-E9-13 hIgG1/L
B6: E9.18 (antibody, V domains shown)
VH: B5 VH with S33G, Y54N, T56A
VL: B5 VL with D25Q, T26R, V32A, E52K, S92R, E93D, S99Y
notes: also called DLL4-E9-18 hIgG1/L
B7: E9.14 (antibody, V domains shown)
VH: B5 VH with S31N, S33R, Y35H, P42S, A90E
VL: B5 VL with D25Q, T26R, V32A, E52K, S92R, E93D, S99Y
notes: also called DLL4-E9-14 hIgG1/L
B8: E9.65 (antibody, V domains shown)
VH: B5 VH with S30R, S31N, S33R, Y35H, S67G
VL: B5 VL with D25Q, T26R, V32A, E52K, S92R, E93D, S99Y

Residue numbers refer to the chain shown, from its start.

The target in one experiment is T1, mouse DLL4 extracellular domain (mouse, UniProt Q9JI71 27-532).
T1 construct: extracellular domain; also called muDLL4 ECD; Mouse DLL4 ECD
T1 sequence (Q9JI71 27-532): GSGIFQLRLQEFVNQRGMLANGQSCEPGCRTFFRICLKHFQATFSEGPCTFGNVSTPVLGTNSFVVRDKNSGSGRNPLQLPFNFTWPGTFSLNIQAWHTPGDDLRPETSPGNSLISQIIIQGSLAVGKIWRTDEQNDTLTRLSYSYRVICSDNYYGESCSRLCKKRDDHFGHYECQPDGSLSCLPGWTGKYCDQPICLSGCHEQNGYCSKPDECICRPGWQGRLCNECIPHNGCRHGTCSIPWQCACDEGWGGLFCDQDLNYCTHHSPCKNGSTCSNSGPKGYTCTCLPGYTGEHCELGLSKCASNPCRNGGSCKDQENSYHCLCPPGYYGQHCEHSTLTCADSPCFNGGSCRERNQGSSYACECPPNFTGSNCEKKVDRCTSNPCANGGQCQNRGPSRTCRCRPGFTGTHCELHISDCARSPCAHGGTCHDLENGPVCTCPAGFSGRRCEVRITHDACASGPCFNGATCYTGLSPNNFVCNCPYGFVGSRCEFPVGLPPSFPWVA
The experiment is described as follows: Biacore SPR.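 Also: surface plasmon resonance on a Biacore instrument, antibodies captured on immobilized anti-human Fc, purified recombinant DLL4 extracellular domain injected as analyte, binding followed over time.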 A general note: SPR reads the build-up and loss of mass on a sensor chip optically.
Description: (§1) Binding of DLL4 antibodies to a purified recombinant DLL4 extracellular domain is determined by surface plasmon resonance-based measurements with a Biacore® instrument (either a Biacore 2000, Biacore 3000, or Biacore T100, GE Healthcare, Piscataway, N.J. US) using running buffer HBS-EPB (10 mM HEPES [pH 7.4], 150 mM NaCl, 3 mM EDTA, 0.1 mg/ml BSA and 0.005% surfactant P20) at 25° C. For example, approximately 9000 RU of goat anti-human Fc specific polyclonal antibody (Thermo Fisher Scientific Inc., Rockford, Ill., US) diluted in 10 mM sodium acetate (pH 4.5) is directly immobilized across a CM5 research grade biosensor chip using a standard amine coupling kit according to manufacturer's instructions and procedures at 25 μg/ml. Unreacted moieties on the biosensor surface are blocked with ethanolamine. For kinetic analysis, rate equations derived from the 1:1 Langmuir binding model are fitted simultaneously to multiple antigen injections (using global fit analysis) with the use of Scrubber 2 (BioLogic Software). […] The equilibrium dissociation constant KD (M) of the reaction between antibodies and the target antigen is then calculated from the kinetic rate constants by the following formula: KD=Koff/Kₒₙ. Binding is recorded as a function of time and kinetic rate constants are calculated. In this assay, on-rates as fast as 10⁶ M⁻¹s⁻¹ and off-rates as slow as 10⁻⁶ s⁻¹ can be measured.
With B1, the binding result is given as “no binding”.

In the case of B2, the binding result is given as “no binding”.

With B3, the binding result is “no binding”.

Turning to B4, the binding result is reported as “no binding”.

The molecule B5 displayed a Kd of 4.89 nM, a koff of 0.000212 s⁻¹ and a kon of 43400 M⁻¹ s⁻¹.

B6 returned a Kd of 0.73 nM, a koff of 1.68e-05 s⁻¹ and a kon of 23200 M⁻¹ s⁻¹.

B7 came in with a Kd of 3.49 nM, a koff of 0.000136 s⁻¹ and a kon of 38900 M⁻¹ s⁻¹.

For B8, the Kd was determined as 5.27 nM, the koff amounted to 0.000136 s⁻¹ and the kon was 25700 M⁻¹ s⁻¹.

A further experiment has as its target T2, human DLL4 extracellular domain (human, UniProt Q9NR61 27-529).
T2 construct: extracellular domain; coated on plates in the sVEGFR1 assay; also called huDLL4 ECD; Human DLL4 ECD
The experiment is described as follows: Biacore SPR.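 Also: surface plasmon resonance on a Biacore instrument, antibodies captured on immobilized anti-human Fc, purified recombinant DLL4 extracellular domain injected as analyte, binding followed over time.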
Description: as §1
Molecule B1 registered a Kd of 0.72 nM, a koff of 3.16e-05 s⁻¹ and a kon of 44000 M⁻¹ s⁻¹.

Consider B2, for which the Kd was found to be 7.69 nM, the koff was 0.000274 s⁻¹ and the kon amounted to 35700 M⁻¹ s⁻¹.

For B3, the Kd amounted to 4.06 nM, the dissociation rate constant (koff) amounted to 0.000406 s⁻¹ and the kon was found to be 100000 M⁻¹ s⁻¹.

The molecule B4 registered a Kd of 0.19 nM, a koff of 9.5e-06 s⁻¹ and a kon of 50700 M⁻¹ s⁻¹.

B5 returned a Kd of 1.33 nM, a koff of 4.97e-05 s⁻¹ and a kon of 37400 M⁻¹ s⁻¹.

Consider B6, for which the Kd worked out at 1.18 nM, the koff was 1.84e-05 s⁻¹ and the kon is 15700 M⁻¹ s⁻¹.

Molecule B7 had a Kd of 9.14 nM, a koff of 0.000365 s⁻¹ and a kon of 39900 M⁻¹ s⁻¹.

In turn, B8 gave a Kd of 14 nM, an off-rate constant (koff) of 0.000363 s⁻¹ and an on-rate constant (kon) of 25900 M⁻¹ s⁻¹.

As a reminder, the Kd is the free concentration of one partner at which half of the binding sites on the other are occupied at equilibrium, for simple one-to-one binding. The low end stands for higher affinity, the high end for lower affinity. In general, koff refers to the rate constant with which the complex falls apart. A lower koff goes with slow dissociation. Usually kon stands for the rate constant with which the complex forms. A lower kon goes with slower complex formation.

The values are drawn from patent US20200255508A1 (AbbVie / Abbott, published 2020).
